The source of these data is patent US11306331B2, “Processes for the production of hydroxycinnamic acids using polypeptides having tyrosine ammonia lyase activity” (CysBio ApS, priority 2014, dated 2022).

Data set [1] concerns the target T1, Flavobacterium johnsoniae FjXAL tyrosine ammonia lyase (Protein GI 146298870), SEQ ID NO: 1, His-tagged (N-terminal tag SEQ ID NO: 11) (Flavobacterium johnsoniae, UniProt A5FKY3).
T1 sequence (A5FKY3 1-506): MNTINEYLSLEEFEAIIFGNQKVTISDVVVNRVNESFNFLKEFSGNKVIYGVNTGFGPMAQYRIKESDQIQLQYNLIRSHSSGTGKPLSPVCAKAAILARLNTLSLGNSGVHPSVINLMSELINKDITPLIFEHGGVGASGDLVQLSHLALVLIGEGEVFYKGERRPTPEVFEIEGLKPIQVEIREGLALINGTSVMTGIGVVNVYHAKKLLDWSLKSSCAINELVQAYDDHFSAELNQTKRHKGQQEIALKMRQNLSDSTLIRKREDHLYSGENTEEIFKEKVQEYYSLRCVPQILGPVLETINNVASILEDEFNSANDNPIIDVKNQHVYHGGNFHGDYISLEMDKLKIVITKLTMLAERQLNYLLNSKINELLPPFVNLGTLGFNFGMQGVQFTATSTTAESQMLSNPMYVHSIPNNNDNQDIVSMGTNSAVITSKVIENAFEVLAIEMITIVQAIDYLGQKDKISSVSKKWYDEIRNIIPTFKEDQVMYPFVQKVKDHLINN
The data set can be described thus: In vitro kinetics of purified His-tagged FjXAL (tyrosine/phenylalanine ammonia lyase activity, absorbance at 315/295 nm). Type of data set: biochemical. The procedure: (§1) The tyrosine ammonia lyase activity may for instance be determined in accordance to the following method: Enzymatic assays are performed in 200 μL volumes in wells in a UV transparent 96-well plate, by following the increase in absorbance at 315 nm (pHCA) using spectrophotometry or HPLC with UV detection. The reaction mixtures contain 2 μg of purified protein and are initiated by adding 1 mM tyrosine or 6 mM after equilibration to 30° C. The enzymatic activity is calculated as U/g, where U is defined as μmol substrate converted per minute. Negative controls contain no purified protein. Kinetic constants Km and vmax are determined from assays containing 1.56 μM to 200 μM tyrosine. See also Kyndt et al. (2002).
Four of the enzymes were further purified by His-tag purification as follows. A DNA linker (5′ phosphorylated oligonucleotides CBJP559 and CBJP560, Table 5) was inserted in place of the sequence between the NdeI and BgIII site in plasmid pCDFDuet-1. This would result in the addition of the amino acids MAHHHHHHENLYFQ (SEQ ID NO: 11) to the N-terminal end of the polypeptides. […]
(§2) Enzymatic assays were performed in 200 μL volumes in wells in a UV transparent 96-well plate, by following the increase in absorbance at 315 nm (pHCA) or 295 nm (CA). […] The enzymatic activity was calculated as U/g, where U is defined as μmol substrate converted per minute.

The subject of data set [2] is E. coli BL21(DE3)pLysS cells. The data set can be described thus: Specific production of pHCA and CA by E. coli expressing TAL/PAL enzymes. The class given is cell-based, Escherichia coli. The conditions noted are these: 24 h after supplementation, +/- standard deviation. The procedure: Plasmids carrying the genes were transformed into electrocompetent E. coli BL21(DE3)pLysS cells (Life Technologies) and selected on LBplates containing 50 ug/mL streptomycin. The strains were grown in M9 minimal media containing glucose as a carbon source, and expression was induced by adding 1 mM IPTG at an optical density at 600 nm of 0.6. After three hours of growth at 30° C. the cultures were supplemented with 2 mM tyrosine, phenylalanine or histidine. After further 24 hours, samples were withdrawn for determination of the optical density at 600 nm and for the isolation of the supernatant.
The concentration of pHCA and CA in the supernatant was quantified by high performance (HPLC) and compared to chemical standards. HPLC was done on a Thermo setup using a HS-F5 column and mobile phases: 5 mM ammonium formate pH 4.0 (A) and acetonitrile (B) at 1.5 mL min-1, using a gradient elution starting at 5% B. From 0.5 min after injection to 7 min, the fraction of B increased linearly from 5% to 60%, and between 9.5 min and 9.6 the fraction of B decreased back to 5%, and remaining there until 12m pHCA and CA were quantified by measuring absorbance at 333 nm and 277 nm, respectively. The production was tested without addition of precursors or the addition of either phenylalanine or tyrosine to the growth medium.
The specific production was calculated as micromolar (μM) concentration per unit of optical density of the culture at 600 nm, and standard deviations were calculated based on triplicate experiments. HaXAL1, HaXAL2 and FjXAL are the most specific enzymes and those that reach the highest yields.

Substrate in data set [3]: N[C@@H](Cc1ccc(O)cc1)C(=O)O
The data set can be described thus: In vitro kinetics of purified His-tagged FjXAL (tyrosine/phenylalanine ammonia lyase activity, absorbance at 315/295 nm). As to conditions: other: FjXAL, 30° C, 1.56 μM to 200 μM tyrosine or 193 μM to 25 mM phenylalanine, pH 7.5. The class given is biochemical, Flavobacterium johnsoniae. The procedure:
as §1
(§3) Four of the enzymes were further purified by His-tag purification as follows. A DNA linker (5′ phosphorylated oligonucleotides CBJP559 and CBJP560, Table 5) was inserted in place of the sequence between the NdeI and BgIII site in plasmid pCDFDuet-1. This would result in the addition of the amino acids MAHHHHHHENLYFQ (SEQ ID NO: 11) to the N-terminal end of the polypeptides. The resulting plasmid was amplified with primers CBJP575 and CBJP576 (table 5) and the genes were amplified and combined using the Gibson reaction (New England Biolabs). The PCR amplification used the same reverse primers as in example 1, but the forward primers matching the His-tag site of the linker (Table 5). Plasmids carrying the genes (e.g. FjXAL, FIG. 4) were transformed into electrocompetent E. coli BL21(DE3)pLysS cells (Life Technologies) and selected on LB plates containing 50 ug/mL streptomycin.
(§4) Strains expressing His-tagged versions of the enzymes were grown in LB media overnight at 37° C. and diluted into fresh LB media with 1 mM IPTG and growth was propagated overnight (approximately 18 h) at 30° C. Cells were harvested by centrifugation at 8000 rpm for 8 minutes, and disrupted by shearing into a buffer (50 mM Tris-HCl, 10 mM imidazole, 500 mM NaCl, 10% glycerol, pH 7.5). The homogenate was clarified by centrifugation at 10000 g for 10 min at 4° C., and the supernatant was loaded onto Ni2+-NTA resin column on an Äkta Pure system connected to a F9-C fraction collector (GE). Finally the fractions containing the purified polypeptide was dialyzed overnight against a buffer containing 50 mM Tris-HCl pH 7.5, 150 mM NaCl and 10% glycerol, flash-frozen in liquid nitrogen and stored at −80° C.
as §2

Substrate in data set [4]: N[C@@H](Cc1ccccc1)C(=O)O
The description is as above. The class given is biochemical, Flavobacterium johnsoniae. As to conditions: other: FjXAL, 30° C, 1.56 μM to 200 μM tyrosine or 193 μM to 25 mM phenylalanine, pH 7.5. On the procedure: as §1, §3, §4, §2

In turn, `N[C@@H](Cc1ccc(O)cc1)C(=O)O` [Tyr, tyrosine] yielded a Kcat in data set [1] (30° C, 1.56 μM to 200 μM tyrosine or 193 μM to 25 mM phenylalanine) of 0.0212 s⁻¹. In data set [1] (ratio of Kcat/Km for Tyr over Phe), the TAL/PAL came to 3000.

B1: Flavobacterium johnsoniae FjXAL tyrosine ammonia lyase (Protein GI 146298870), SEQ ID NO: 1, His-tagged (N-terminal tag SEQ ID NO: 11) (Flavobacterium … (protein)
chain: T1 sequence (A5FKY3 1-506)
The term Km denotes the concentration of substrate that gives half-maximal velocity. As a reminder, the kcat is the number of substrate molecules converted per active site and unit of time at saturation. By kcat/Km is commonly meant the second-order rate constant that governs catalysis at low substrate concentration. For B1, the “Specific production of CA” value in data set [2] (M9 + His (2 mM)) is 0 ± 0 μM OD600-1; in data set [2] (M9 + Phe (2 mM)), 0.5 ± 0.4 μM OD600-1; in data set [2] (M9 + Tyr (2 mM)) it was 0 ± 0 μM OD600-1. For the same molecule, the “Specific production of pHCA” value in data set [2] (M9 + His (2 mM)) was found to be 91 ± 20 μM OD600-1; in data set [2] (M9 + Phe (2 mM)), 76 ± 29 μM OD600-1; in data set [2] (M9 + Tyr (2 mM)) it was 440 ± 100 μM OD600-1. Moreover, the Km in data set [3] came to 0.0057 mM; in data set [4] it was 6.6 mM. Besides, the kcat in data set [4] came out at 0.00817 s⁻¹. Further, in data set [4], the kcat/Km worked out at 1.23 M⁻¹ s⁻¹.
